Consider one molecule from US20250289892A1 (TAIZHOU ENZE MEDICAL CENTER GROUP, published 2025).

Assay [1] concerns the target T1, antigenic peptide of amino acid sequence at positions 106-126 of a heavy chain of HLA-G molecules … (human).
T1 construct: Synthesized peptide, coated on ELISA plates at 2 ug/ml; also called immunogen
T1 peptide: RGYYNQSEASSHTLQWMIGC
The assay can be described thus: ELISA, peptide coated at 2 ug/ml, antibody titrated; logistic fit.
Procedure: (§1) The antigen (SEQ No. 17 [sequence]) was diluted with the coating buffer, with the final concentration of 2 μg/ml, 100 ul/well, and placed at 4° C. overnight; washed with the wash buffer twice, blocked with the blocking buffer at 200 ul/well, incubated at 37° C. for 2 hours; then washed once with the wash buffer. The purified antibody was diluted by 2-fold starting from 200-fold (PBS), and the blank control (blank) was PBS, 100 ul/well, and incubated at 37° C. for 1 hour; and then washed 3 times with the wash buffer. The secondary antibody diluted with PBS by 20,000-fold was added, 100 ul/well, and incubated in a 37° C. incubator for 1 hour; taken out and washed 3 times with a wash buffer. Then the color development was performed with a developing solution of 100 ul/well for 5-15 minutes. Then 50 ul of stop solution was added to each well to stop. The absorbance value was measured at dual wavelengths (450, 630), and a chart was drawn for analysis.

The target of assay [2] is T1, antigenic peptide of amino acid …. The assay can be described thus: ELISA, peptide coated at 2 ug/ml, antibody stock 3.0 mg/mL titrated.
Procedure: as §1
The next assay has as its target T2, HLA-G3 standard protein (human, UniProt P17693-3 25-154, limits assumed).
T2 construct: Standard protein run on denaturing PAGE for immunoblotting
The assay can be described thus: immunoblotting of standard proteins after denaturing PAGE.

The next assay addresses T3, HLA-G7 standard protein (human, UniProt P17693-7 25-116, limits assumed).
T3 construct: Standard protein run on denaturing PAGE for immunoblotting
The assay is described as above.

The target of the next assay is T4, HLA-G6 standard protein (human, UniProt P17693-6 25-227, limits assumed).
T4 construct: Standard protein run on denaturing PAGE for immunoblotting
Described as above.

A further assay addresses T5, HLA-G2 standard protein (human, UniProt P17693-2 25-246, limits assumed).
T5 construct: Standard protein run on denaturing PAGE for immunoblotting
The assay is described as above.

Procedure for HLA-G2 standard protein: (§2) The denaturing PAGE electrophoresis of the standard proteins of HLA-G isoforms (HLA-G1, HLA-G2, HLA-G3, HLA-G4, HLA-G5, HLA-G6 and HLA-G7) was performed. After semi-dry electroporating, 5% skimmed milk powder was used to block at room temperature for 4 hours, and washed with 0.2% TBS (Tween-20 PBS).
Procedure for HLA-G3 standard protein: as §2
Procedure for HLA-G6 standard protein: as §2
Procedure for HLA-G7 standard protein: as §2

B1: monoclonal antibody (YWHG-4) against HLA-G isoforms (HLA-G1, HLA-G4, HLA-G5) (antibody, V domains shown)
VH: VQLQQSGAEVVRPGTSVKVSCKASGYASTNYLVEWIKQRPGQGLEWIGVINPGSGRIYYSEKFKGKTTLTADKSSSNAYMQLSSLTSDDSAVYFCARHYGNSAWFAYWGQGTLVTVSA
VL: DIVITQDELSLPVSLGDQAAISCRSSQSIVHSNGNTYLEWYLQKPGQSPKLLIYKVSNRFSGVPDRFRGSGSGTDFTLKISRVEAEDLGVYYCFQASHVPYTFGGGTKLEIKR
notes: FITC-labeled in the flow cytometry; also called hybridoma CCTCC NO: 2021204
As for B1, in assay [1], the Ka was 9.87e+09 M⁻¹. Moreover, the “antibody dilution factor corresponding to 1/2 OD value” in assay [2] turned out to be 197000 fold dilution. Besides, the binding result in the assay with HLA-G3 standard protein, with HLA-G7 standard protein, with HLA-G6 standard protein and in the assay with HLA-G2 standard protein was “no binding” each time.
